Experimental data published in article doi:10.1101/2021.10.01.462756 (bioRxiv, 2021).

T1: Ddc1 (S. cerevisiae, UniProt Q08949 1-612)
T1 sequence: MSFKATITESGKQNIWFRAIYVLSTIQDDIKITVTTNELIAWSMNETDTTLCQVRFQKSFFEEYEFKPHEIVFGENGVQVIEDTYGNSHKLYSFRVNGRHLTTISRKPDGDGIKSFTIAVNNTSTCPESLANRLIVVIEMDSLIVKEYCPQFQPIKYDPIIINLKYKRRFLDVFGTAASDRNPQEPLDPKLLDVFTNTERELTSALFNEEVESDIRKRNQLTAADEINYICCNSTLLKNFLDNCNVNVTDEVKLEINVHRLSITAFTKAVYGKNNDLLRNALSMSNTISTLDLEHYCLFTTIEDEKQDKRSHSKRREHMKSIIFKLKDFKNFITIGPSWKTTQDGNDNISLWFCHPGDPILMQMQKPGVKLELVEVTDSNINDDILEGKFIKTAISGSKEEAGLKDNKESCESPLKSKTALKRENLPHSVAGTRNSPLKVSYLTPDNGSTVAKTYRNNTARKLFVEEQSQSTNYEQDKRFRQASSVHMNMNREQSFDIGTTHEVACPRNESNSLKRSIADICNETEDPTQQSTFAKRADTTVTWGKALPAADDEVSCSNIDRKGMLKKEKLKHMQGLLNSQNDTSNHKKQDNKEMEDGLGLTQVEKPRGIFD

T2: His-PK-Mec3 (S. cerevisiae, UniProt Q02574 1-474)
T2 sequence: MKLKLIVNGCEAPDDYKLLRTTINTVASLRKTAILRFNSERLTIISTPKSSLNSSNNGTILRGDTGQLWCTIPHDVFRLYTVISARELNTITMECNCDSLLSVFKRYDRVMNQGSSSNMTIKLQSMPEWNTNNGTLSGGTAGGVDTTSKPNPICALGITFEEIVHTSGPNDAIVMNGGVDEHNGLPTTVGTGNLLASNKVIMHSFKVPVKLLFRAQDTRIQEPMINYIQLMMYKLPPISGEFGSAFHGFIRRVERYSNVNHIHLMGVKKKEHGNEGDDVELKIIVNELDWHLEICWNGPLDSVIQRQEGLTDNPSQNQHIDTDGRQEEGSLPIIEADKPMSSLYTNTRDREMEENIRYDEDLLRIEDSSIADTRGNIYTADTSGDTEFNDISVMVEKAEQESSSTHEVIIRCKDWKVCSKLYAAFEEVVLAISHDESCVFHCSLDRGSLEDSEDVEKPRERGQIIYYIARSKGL

B1: 9-1-1 clamp (Ddc1–Mec3–Rad17) (complex)
chain 1: T1 sequence
chain 2: T2 sequence
chain 3: MRINSELANKFSASTVHLEHITTALSCLTPFGSKDDVLIFIDADGLSFVRENNHVIKIQLLLSRELFMSYSYRNETEDHMKLCVKINHILDSVSVMNRNSDDIVECTLSYDGHGSPFVLIFEDSFISERVEYSTYLIKDFDTNGLELDRERISFEAIIKGEALHSALKDLKEIGCKECYVYAKTEANDENVFALISKSQLGFSKIKLPSNRSILEKLQVFDGDSTTVIDGFAVIGFFDFTSFDKIRKSTKIASKVLFRMDVHGVLSVNILSQTDDVIITDTTRPSNNRPGSIRQLQLPKDYPGIVIEVCMLEKESIDEAAQTEIELLMETNELGNRNSFKKSTIRKRYGTDKGNETSNDNLLQLNGKKIKLPSEEENNKNRESEDEENHCKYPTKDIPIFF
B2: Rad17 (natural protein)
chain: B1 chain 3

Legend:
Assay in all cases: cryo-EM structure
[1] = target: Rad24-RFC clamp loader (Rad24, Rfc2, Rfc3, Rfc4, Rfc5) (S. cerevisiae, UniProt P32641;P40348;P38629;P40339;P38251)
Ddc1 = target: T1, Ddc1
His-PK-Mec3 = target: T2, His-PK-Mec3

| Binder | binding result [1] | binding result (Ddc1) | binding result (His-PK-Mec3) |
| --- | --- | --- | --- |
| B1 | binds |  |  |
| B2 |  | binds | binds |
